Results on one molecule are retold here after EP4613780A1 (Adlai Nortye Biopharma Co., Ltd., dated 2025).

Experiment [1] addresses PD-L1 on TCR activator PD-L1-CHO cells (BPS bioscience) (UniProt Q9NZQ7 19-290, limits assumed). Nature of the experiment: cell-based or functional assay.
Experiment [2] concerns the target T1, human CD28 protein (Acro, CD8-H525a) (human, UniProt P10747 19-152).
T1 construct: coated on the ELISA plate; also called human CD28 antigen
Nature of the experiment: ELISA, coated human CD28. (An ELISA detects its analyte on a solid surface through an enzyme-linked reagent.)

In experiment [3] the target is T2, human CTLA4 protein (Acro, CT4-H52H9) (human, UniProt P16410 36-161).
T2 construct: coated on the ELISA plate; also called human CTLA4 antigen
T2 sequence (looked up): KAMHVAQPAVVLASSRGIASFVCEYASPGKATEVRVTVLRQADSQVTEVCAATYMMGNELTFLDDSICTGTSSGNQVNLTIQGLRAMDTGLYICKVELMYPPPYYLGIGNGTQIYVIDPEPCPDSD
The experiment can be described thus: ELISA, coated human CTLA4.

The target of experiment [4] is T3, human PD-L1 protein (Acro, PD1-H5258) (human, UniProt Q9NZQ7 19-238).
T3 construct: coated on the ELISA plate; also called human PDL1 antigen
The experiment can be described thus: ELISA, coated human PD-L1.

For experiment [5], the target named is hPD-L1 (Octet R8 analyte) (human, UniProt Q9NZQ7 19-238, limits assumed). Nature of the experiment: BLI Octet R8, Protein A probe.
The target of experiment [6] is T4, hCTLA-4 (Octet R8 analyte) (human, UniProt P16410 36-161, limits assumed).
T4 sequence (looked up): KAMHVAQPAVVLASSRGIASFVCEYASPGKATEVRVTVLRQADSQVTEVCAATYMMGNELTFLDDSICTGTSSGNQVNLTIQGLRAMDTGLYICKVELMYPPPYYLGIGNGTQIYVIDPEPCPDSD
Nature of the experiment: BLI Octet R8, Protein A probe. In general terms: Biolayer interferometry detects binding as a change in optical thickness at a sensor tip.

The target in experiment [7] is hCD28 (Octet R8 analyte) (human, UniProt P10747 19-152, limits assumed). Nature of the experiment: BLI Octet R8, Protein A probe.
Chain of hCD28 (Octet R8 analyte) (P10747 19-152 limits assumed): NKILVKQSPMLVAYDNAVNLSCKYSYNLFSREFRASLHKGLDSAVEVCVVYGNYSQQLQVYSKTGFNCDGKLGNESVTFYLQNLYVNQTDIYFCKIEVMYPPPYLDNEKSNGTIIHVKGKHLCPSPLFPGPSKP

Chain of PD-L1 on TCR activator PD-L1-CHO cells (BPS bioscience) (Q9NZQ7 19-290 limits assumed): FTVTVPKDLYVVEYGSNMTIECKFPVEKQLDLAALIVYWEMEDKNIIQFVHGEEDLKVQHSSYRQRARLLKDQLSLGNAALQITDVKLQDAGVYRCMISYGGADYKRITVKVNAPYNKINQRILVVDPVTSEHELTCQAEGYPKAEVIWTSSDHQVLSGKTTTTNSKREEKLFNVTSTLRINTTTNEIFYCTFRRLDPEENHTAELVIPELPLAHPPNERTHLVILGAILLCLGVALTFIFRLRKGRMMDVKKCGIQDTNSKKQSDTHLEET
Chain of hPD-L1 (Octet R8 analyte) (Q9NZQ7 19-238 limits assumed): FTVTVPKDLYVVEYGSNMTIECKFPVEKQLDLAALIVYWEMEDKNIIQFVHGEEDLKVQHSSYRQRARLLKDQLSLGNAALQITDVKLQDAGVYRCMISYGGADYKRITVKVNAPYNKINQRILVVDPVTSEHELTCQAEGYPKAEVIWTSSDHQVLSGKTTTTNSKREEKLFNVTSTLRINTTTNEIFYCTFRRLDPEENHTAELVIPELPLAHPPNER
T3 sequence (Q9NZQ7 19-238 limits assumed): as above
T1 sequence (P10747 19-152 limits assumed): as the sequence (P10747 19-152 limits assumed) above

B1: antibody Abs-16 (sugemalimab) (antibody, human IgG4 S228P, lambda, V domains shown)
VH: EVQLLESGGGLVQPGGSLRLSCAASGFTFSSYAMSWVRQAPGKGLEWVSGISGSGGFTYYADSVKGRFTISRDNSKNTLYLQMNSLRAEDTAVYYCAKPPRGYNYGPFDYWGQGTLVTVSS
VL: SYVLTQPPSVSVAPGQTARITCGGNNIGSKSVHWYQQKPGQAPVLVVYDDSDRPSGIPERFSGSNSGNTATLTISRVEAGDEADYYCQVWDSSSDHVVFGGGTKLTVLG
notes: anti-PD-L1 control antibody; also called Sugemalimab (CS1001)
The EC50 is the concentration needed to bring the measured effect to its halfway point. Low readings indicate greater potency, high ones weaker potency. The Kd is the equilibrium constant for the complex coming apart. Read a high Kd as weaker binding. In the case of B1, the “Jurkat-NFAT-Luc/CHO-PDL1 EC50” value in experiment [1] is 0.09 nM. Also, the “Top induction relative to 10nM sugemalimab” value in experiment [1] worked out at 100%. For the same molecule, the binding result in experiment [2] was “no binding”; in experiment [3], “no binding”; in experiment [6] it was “no binding (tested: 50nM)”; in experiment [7], “no binding (tested: 50nM)”. Also, in experiment [4], the midpoint of the response, the EC50, lay at 0.0767 nM. The molecule further came in with a Kd in experiment [5] of 0.581 nM.
